# Reference: the supplement of paper PMC12764529
# ± gives the half width of the 95% confidence interval.
# Tests used:
# [1] = folding stability dG unfold from trypsin proteolysis; higher = more stable
# Procedure, shortened: (§1)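 Designed mini-proteins with no cysteine and under 80 residues were kept only if AlphaFold2 dimer inter-PAE was above 15. In a PA-tagged cDNA display construct, they were digested with trypsin and chymotrypsin and then sequenced. K50 was inferred by Bayesian fitting of counts, and unfolding free energy was derived per protease or combined against a sequence-predicted unfolded-state K50 and a shared folded-state K50.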
# [2] = folding stability dG unfold (combined trypsin and chymotrypsin); higher = more stable
# Procedure, shortened: as §1
# [3] = folding stability dG unfold from chymotrypsin proteolysis; higher = more stable
# Procedure, shortened: as §1
sequence,measurement,setting,value
SAGGAMVPVNFTLKFTYTNPDGTPVFREKPVTLPFPESDPAAAEAAARARAEAEAAARGVEVDLEVSLSAGG [r13_853_JUSTAS],folding stability dG unfold,[1],0.0284 ± 0.12 kcal/mol
same,folding stability dG unfold,[2],0.193 ± 0.11 kcal/mol
same,folding stability dG unfold,[3],0.219 ± 0.22 kcal/mol
SAGGANIHVRMENPGDGKPMSFMIPVKEVREAKQEGKDEIKIPFGGGPMKVEIEPLPDGWVHIRMRMPSAGG [r13_171_TrROS],folding stability dG unfold,[1],0.417 ± 0.27 kcal/mol
same,folding stability dG unfold,[2],0.201 ± 0.26 kcal/mol
same,folding stability dG unfold,[3],-0.0135 ± 0.4 kcal/mol
SAGGAPGVPSVTVIPFDPSTGRALALVVDGDRVYVISSAVPLEVLRELGVDRVEPLPDGTLVAVSLASAGGS [r8_382_TrMRF],folding stability dG unfold,[1],1.13 ± 0.02 kcal/mol
same,folding stability dG unfold,[2],1.38 ± 0.041 kcal/mol
same,folding stability dG unfold,[3],1.49 ± 0.027 kcal/mol
SAGGAPLVPVSTETYTVKDSKGNEVTITIETLPDGSYRITITYPNGEVKEYEFPSKEEAEKLEITVNPSAGG [r13_109_JUSTAS],folding stability dG unfold,[1],3.63 ± 0.23 kcal/mol
same,folding stability dG unfold,[2],3.62 ± 0.14 kcal/mol
same,folding stability dG unfold,[3],3.66 ± 0.1 kcal/mol
SAGGAPNWKIEKIEIEYPGRKIEVWRHDNMWFIHIPAPPGYPIRIKIKIEPDNGETQTQERTFPIPPPSAGG [r13_191_TrROS],folding stability dG unfold,[1],1.75 ± 0.061 kcal/mol
same,folding stability dG unfold,[2],2.37 ± 0.35 kcal/mol
same,folding stability dG unfold,[3],2.83 ± 0.073 kcal/mol
SAGGAPSSSPIPIDLGDPNDEEKLKAEVEAIEKEYAAKGVTPITVERVGENKYRIKIPTGGVATVALSAGGS [r16_703_JUSTAS],folding stability dG unfold,[1],-0.55 ± 0.11 kcal/mol
same,folding stability dG unfold,[2],-0.169 ± 0.12 kcal/mol
same,folding stability dG unfold,[3],-0.0876 ± 0.12 kcal/mol
SAGGAPTVELKTETIETEDGTYLVVEAKVPTPDVTLEIKLPHGGETEVVYDPETGTATVVFRLPPDWLSAGG [r13_380_TrMRF],folding stability dG unfold,[1],1.72 ± 0.088 kcal/mol
same,folding stability dG unfold,[2],2.25 ± 0.15 kcal/mol
same,folding stability dG unfold,[3],2.51 ± 0.053 kcal/mol
SAGGAPVTVREEELPENSKLITIEYPDGLTLEVLEYPDKVLVREWDTATGKELSSRTLTHEELEKLLSAGGS [r8_476_JUSTAS],folding stability dG unfold,[1],1.81 ± 0.052 kcal/mol
same,folding stability dG unfold,[2],2.19 ± 0.14 kcal/mol
same,folding stability dG unfold,[3],2.41 ± 0.034 kcal/mol
SAGGARFEFTTPEGDRVTVELETTADELRVRVTVHRENEPFTLEATFPLPPPAPPAVPADVPGPSLLLSAGG [r13_691_TrMRF],folding stability dG unfold,[1],2.06 ± 0.15 kcal/mol
same,folding stability dG unfold,[2],1.91 ± 0.21 kcal/mol
same,folding stability dG unfold,[3],1.62 ± 0.089 kcal/mol
SAGGASLDDLPLEGIEVLEEEVIPLPNGSTLRKFLVKKPSPGPPELLVEVTEFVDEGSSSVSVTPLGSAGGS [r16_469_JUSTAS],folding stability dG unfold,[1],0.179 ± 0.054 kcal/mol
same,folding stability dG unfold,[2],0.0997 ± 0.14 kcal/mol
same,folding stability dG unfold,[3],-0.301 ± 0.45 kcal/mol
SAGGASTVEYEITLPLDPSGSVDPDTIRAAAEAIAAADPDFVDHRIEEITITRLPDGTVRFTVTISVPSAGG [r13_462_JUSTAS],folding stability dG unfold,[1],2.66 ± 0.11 kcal/mol
same,folding stability dG unfold,[2],2.53 ± 0.092 kcal/mol
same,folding stability dG unfold,[3],2.46 ± 0.049 kcal/mol
SAGGDEIVERVRQLFEDLGFPVEIVDDDAPDGVLRVRISPEAVEKLGPLVINLPFPDIKEVRTELLPSAGGS [r8_318_TrMRF],folding stability dG unfold,[1],0.968 ± 0.013 kcal/mol
same,folding stability dG unfold,[2],1.26 ± 0.025 kcal/mol
same,folding stability dG unfold,[3],1.5 ± 0.015 kcal/mol
SAGGDGPPKFEPISIPIGDGVIKIWRSPNGSIHLEIMPPGGKPVASKEYPFPDGRKLKLDIQVKPPEDSAGG [r13_584_TrROS],folding stability dG unfold,[1],0.394 ± 0.13 kcal/mol
same,folding stability dG unfold,[2],0.466 ± 0.14 kcal/mol
same,folding stability dG unfold,[3],0.252 ± 0.18 kcal/mol
SAGGDITITKNPENDYYTITLPLPNSNSTAVAFLDPKTGTAVVINPDNPLVLVLEPNGTLKEVKLLPPSAGG [r13_101_TrMRF],folding stability dG unfold,[1],1.04 ± 0.05 kcal/mol
same,folding stability dG unfold,[2],0.902 ± 0.15 kcal/mol
same,folding stability dG unfold,[3],0.566 ± 0.2 kcal/mol
SAGGDKKWTAEFDVRKRDDTVEVTLTFTDPNGNETTETYTLTDDELAKLLAELPPEFKNVTRNEVLESAGGS [r16_298_JUSTAS],folding stability dG unfold,[1],1.57 ± 0.043 kcal/mol
same,folding stability dG unfold,[2],1.85 ± 0.16 kcal/mol
same,folding stability dG unfold,[3],2.04 ± 0.11 kcal/mol
SAGGDKNAKPIKPITISFTLEDGSKKTITATFYKDAVIVEITYINPKTGKPFTKTFVFKKKGVKLLLSAGGS [r16_419_TrMRF],folding stability dG unfold,[1],2.43 ± 0.096 kcal/mol
same,folding stability dG unfold,[2],3.02 ± 0.21 kcal/mol
same,folding stability dG unfold,[3],3.19 ± 0.094 kcal/mol
SAGGDLKIEIEPYRMGDYPMYEVKIEDPDGKDITLWMNSNNGQMMVFYPNGKPRRVDSAEDVLEALKSAGGS [r8_168_TrROS],folding stability dG unfold,[1],-0.243 ± 0.16 kcal/mol
same,folding stability dG unfold,[2],0.149 ± 0.1 kcal/mol
same,folding stability dG unfold,[3],0.185 ± 0.16 kcal/mol
SAGGDNFKIEIQFFPDGHIFILIKWPNGDWILIPVPIEYPVPKRDPDGEVKEPGPVTHTHLFLIPANDSAGG [r13_236_TrROS],folding stability dG unfold,[1],1.88 ± 0.097 kcal/mol
same,folding stability dG unfold,[2],2.74 ± 0.16 kcal/mol
same,folding stability dG unfold,[3],3.21 ± 0.046 kcal/mol
SAGGDNKPKVYPITFMIPPDDIKPGDEIPIDEIADNLGIPPNYTIKIKEVQPNPEDGYYMYRIEIVWSAGGS [r16_165_TrROS],folding stability dG unfold,[1],1.57 ± 0.041 kcal/mol
same,folding stability dG unfold,[2],1.65 ± 0.073 kcal/mol
same,folding stability dG unfold,[3],1.68 ± 0.085 kcal/mol
SAGGDNVRPIKFEFKDGVKKSIYRSEDMIYINVEFYYDGRPLYRHSIEIPNIPPGDDAEIKFKIPPGSAGGS [r8_155_TrROS],folding stability dG unfold,[1],0.372 ± 0.18 kcal/mol
same,folding stability dG unfold,[2],1.24 ± 0.21 kcal/mol
same,folding stability dG unfold,[3],1.55 ± 0.22 kcal/mol
SAGGDPIEDIVKEIAEEHGYPIKNVEVEPVDPNTLVVEVQMPNGYRIKIEIPYDPDGDLNINVEWEPSAGGS [r8_284_TrROS],folding stability dG unfold,[1],1.13 ± 0.11 kcal/mol
same,folding stability dG unfold,[2],1.65 ± 0.23 kcal/mol
same,folding stability dG unfold,[3],2.04 ± 0.045 kcal/mol
